Results reported in publication PMC9637899, “Outer surface lipoproteins from the Lyme disease spirochete exploit the molecular switch mechanism of the complement protease C1s” (The Journal of Biological Chemistry, 2022).

Molecular target: T1, activated C1s–CCP1–CCP2–SP (human, UniProt P09871 292-688)
T1 construct: human complement C1s, C-terminal domains CCP1, CCP2 and serine protease (SP); Cleaved by C1r into two chains (confirmed by reducing SDS-PAGE); Tag removal is inferred: only the c-Myc S632A form 'was not subjected to His-TEV cleavage'; also called wildtype C1s–CCP1–CCP2–SP
T1 sequence: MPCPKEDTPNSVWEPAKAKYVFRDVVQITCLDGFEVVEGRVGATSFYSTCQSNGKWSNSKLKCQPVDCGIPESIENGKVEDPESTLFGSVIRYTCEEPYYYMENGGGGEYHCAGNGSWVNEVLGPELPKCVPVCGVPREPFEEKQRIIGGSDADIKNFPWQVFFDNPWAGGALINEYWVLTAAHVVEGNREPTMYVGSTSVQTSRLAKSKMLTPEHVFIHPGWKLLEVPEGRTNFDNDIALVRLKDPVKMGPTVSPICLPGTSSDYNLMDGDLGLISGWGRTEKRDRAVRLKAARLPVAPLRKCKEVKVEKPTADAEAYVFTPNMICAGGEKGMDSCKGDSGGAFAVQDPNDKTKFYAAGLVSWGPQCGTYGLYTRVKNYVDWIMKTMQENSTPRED
Assay: SPR; Elp truncation amine-coupled to a CMD200 chip; multicycle twofold injection series of C1s enzyme or activated C1s–CCP1–CCP2–SP constructs from 200 nM; HBS-T Ca2+ (10 mM Hepes pH 7.3, 140 mM NaCl, 0.005% Tween-20, 5 mM CaCl2), 30 ul/min; K_(D, kin) from a kinetic and K_(D, ss) from a steady-state 1:1 (Langmuir) fit; triplicate
Conditions: both partners purified

B1: ElpB_(182–378) (domain or fragment)
chain: QERKAKAEKEAKEKAERQKQEEQQKRKAEKEREEQRKEAEKRQVDNEIRTLTGKIDEINRNIDVIKEQTSVGAQGVIDRITGPVYDDFTDGNKAIYKTWGDLEDDNDEGLGKLLKELSDTRHNLRTKLNEGNKAYIIDTRSTEPQLKENVSVSEIKSDLDELKSKLEEVKEYLEDKDNFEEIKEYVAGSEDNYDEED
notes: ElpB (ErpB) of B. burgdorferi, residues 182-378; also called C-terminal domain of ElpB; not shown: His6 (from the vector pT7HMT), N-terminal, cleaved; c-Myc (from the vector pT7HMT), N-terminal, cleaved
Binder B1 has a Kd of 360 ± 17 nM.
